Biological target: WDR5 (Homo sapiens, UniProt P61964)
Assay: biolayer interferometry

LNPHGAARAEVYLR [MLL4Win] gave a Kd of 460 nM.

From paper PMC8861093 (2022)
